The source of these data is patent US12383631B2, “Immune antigen specific IL-18 immunocytokines and uses thereof” (Bright Peak Therapeutics AG, priority 2022, dated 2025).

Assay [1] deals with T1, human IL-18 binding protein isoform a (IL-18BPa) (Homo sapiens, UniProt O95998).
T1 sequence (O95998 31-194): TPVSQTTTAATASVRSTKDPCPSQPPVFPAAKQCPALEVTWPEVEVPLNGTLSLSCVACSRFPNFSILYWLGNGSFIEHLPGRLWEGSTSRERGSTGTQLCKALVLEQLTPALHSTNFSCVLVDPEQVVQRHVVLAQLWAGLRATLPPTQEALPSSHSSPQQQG
Put plainly: Cellular IL-18 Binding protein resistance assay in NK-92 cells (Example 13). The assay is classed as cell-based. To be noted: NK92 cells, IL-18 analyte 1 nM final, IL-18BPa titrated, 1 ng/ml IL-12; read-out: IC50 IL-18BP-mediated inhibition of IFNγ secretion. As for the experimental part: The NK cell line NK-92 derived from a patient with lymphoma (ATCC, Cat #CRL-2407) was cultured in aMEM medium supplemented with 20% FCS-Glutamax, 25 μM B-mercaptoEthanol, and 100 IU/ml of recombinant Human Interleukin-2 (TL-2). On the day of experiment, cells were harvested and washed with aMEM medium without IL-2. After counting, cells were seeded at 100 000 cells/well in a 384 well titer plate and incubated at 37° C./5% CO2. Sixteen 2-fold serial dilutions of Fc fused human IL-18 binding protein isoform a (IL-18BPa; R&D systems, Cat #119-BP) were prepared in aMEM medium-1 ng/ml IL-12 containing 2 nM of each IL-18 variants and were added to the NK-92 cells. Final IL-18 analytes concentration was 1 nM and final IL-18BPa concentrations ranged from to 566 nM down to 17 pM.
After 16-20 h incubation at 37° C./5% CO2, 5 μl of supernatant were carefully transferred to a 384 microwells OPTIplate (Perkin Elmer; Cat #6007270) and Interferon-gamma (IFNγ) levels measured using the Human IFNγ AlphaLISA Assay Kit (Perkin Elmer, Cat #AL217C). Briefly, 10 μl of 2.5× AlphaLISA Anti-IFNγ acceptor beads and biotinylated Antibody Anti-IFNγ mix were added to the 5 μl of NK-92 supernatants and incubated for 1 h at room temperature under shaking. Under subdued light, 2.5 μl of 2× streptavidin (SA) donor beads were pipetted in each well and incubated for 30 min at room temperature under shaking. AlphaLisa signal was then measured on an Enspire plate reader (Perkin Elmer) using 680 and 615 nm as excitation and emission wavelengths respectively. Half maximal inhibitory concentration (IC50) was calculated based on a variable slope, four parameter analysis using GraphPad PRISM software.

Assay [2] has as its system PD-1 positive (transduced) KG-1 cells. Description: IFN gamma secretion assay in PD-1 transduced KG-1 cells (Example 11). The assay is classed as cell-based, human. To be noted: ratio of EC50 in PD-1 positive and parental KG-1 cells. As to the method: The KG-1 cell line was used to generate a PD-1 expressing cell line and furthermore, to measure IFNγ release upon incubation with TL-18 variants and corresponding TL-18 immunocytokines.
PD-1 expressing cell line generation: Briefly, KG-1 cells were transduced using lentiviral particles carrying the human PD-1 gene (PDCD1 NM_005018; Origene, CAT #: RC210364L3V) at a MOI (Multiplicity of Infection) of 30. Spinfection was performed at 1260 g during 90 min at 37° C. in the presence of 5 μg/ml of Polybrene and 10 mM of HEPES in complete culture media (RPMI, 10% FBS, 1% L-Glutamine). Five days after transduction, puromycin at a final concentration of 1 μg/ml was added to select for PD-1 positive cells. For culture maintenance, puromycin concentration was decreased to 0.5 μg/ml. Stable and homogenous expression of PD-1 was verified by surface staining (BD Pharmingen, #557860).
IFNγ release was assessed in PD-1 positive (transduced) KG-1 cells, as well as in the parental PD-1 negative cells. 0.5×10^5 cells were seeded into a 96-well U-bottom plate in culture media (RPMI, 10% FBS, […]) and stimulated with IL-18 variants/ICs for 20-24 h. The test items were diluted to 100 nM in culture medium, followed by 7 10-fold serial dilutions. The lowest concentration assessed was […]. After incubation, IFNγ release was measured using the LEGENDplex custom human mix and match KIT (Biolegend LEGENDplex™ Human IFN-γ Capture Bead B5, 13×#740942, LEGENDplex™ P 1 Essential Immune Response Panel Detection Abs, #740931, LEGENDplex™ Buffer Set A #740368). To this end, cell culture supernatant was collected and diluted 1:1 with Assay Buffer. Fluorescence measurements were done with a Quanteon Flow Cytometer from Acea Biosciences. For analysis, MFI values (median fluorescence intensity) were exported and plotted against concentrations used. The EC50 values (half maximal effective concentration) were calculated based on a variable slope and four parameter analysis using GraphPad PRISM software version 9.

For the substance “SEQ ID NO: 1: native IL-18 wild-type sequence [reference compound]”, in assay [1], the IC50 (as a rule, the concentration that inhibits the measured activity by half) is 0.781 nM. In addition, the “PD-1^pos/PD-1^neg EC50 ratio” value in assay [2] was 1.298.
The matching figures for “SEQ ID NO: 31: IL-18 polypeptide: C38A, C76A, C127A”: 0.282 nM and 1.2.
